From patent publication CN101123983A (MEDIMMUNE INC, dated 2008)
Where a chain is given by its changes, count along the chain named.

B1: 6B7 (Fab, V domains shown)
VH: QVQLLQSGAEVKKPGASVKVPCKASGYTFTSRAMSWVRQAPGQGLEWMGWINTNTGNPTYAQGFTGRFVFSLDTSVSTAYLQISSLKAEDTAVYYCARVRFTVYGDGMDVWGQGTLVTVSS
VL: EIVLTQSPATLSVSPGERATLSCRASQSVSSNPAWYQQKPGQAPRLLIYGASTRATGIPDRFSASGSGTDFTLTISRVEPEDFAVYYCQQYGPSWTFGQGTKVEIK
B2: 1B10 (Fab, V domains shown)
VH: B1 VH
VL: B1 VL with R54W
B3: 1D11 (Fab, V domains shown)
VH: B1 VH with F101T, G107N
VL: B1 VL with P33L, A34P
B4: 3A12 (Fab, V domains shown)
VH: B1 VH
VL: B1 VL with P33L, R54W
B5: 1G11 (Fab, V domains shown)
VH: B1 VH
VL: B1 VL with P33L, A34P, A55P
B6: 3C6 (Fab, V domains shown)
VH: B1 VH with F101L
VL: B1 VL with A34P, P93S
B7: 1A4 (Fab, V domains shown)
VH: B1 VH with F64S
VL: B1 VL
B8: 11H1 (Fab, V domains shown)
VH: B1 VH with R32Y, F101L
VL: B1 VL with P33L, P93S
notes: Fab with human gamma1 CH1 and human kappa constant domain; also called GEA44衍生物11H1

Target: T1, 人EphA4-His融合蛋白 (human EphA4 extracellular domain fused to a histidine tag) (human, UniProt P54764 20-547)
T1 construct: also called rhuEphA4-His; not shown: histidine tag
T1 sequence (P54764 20-547): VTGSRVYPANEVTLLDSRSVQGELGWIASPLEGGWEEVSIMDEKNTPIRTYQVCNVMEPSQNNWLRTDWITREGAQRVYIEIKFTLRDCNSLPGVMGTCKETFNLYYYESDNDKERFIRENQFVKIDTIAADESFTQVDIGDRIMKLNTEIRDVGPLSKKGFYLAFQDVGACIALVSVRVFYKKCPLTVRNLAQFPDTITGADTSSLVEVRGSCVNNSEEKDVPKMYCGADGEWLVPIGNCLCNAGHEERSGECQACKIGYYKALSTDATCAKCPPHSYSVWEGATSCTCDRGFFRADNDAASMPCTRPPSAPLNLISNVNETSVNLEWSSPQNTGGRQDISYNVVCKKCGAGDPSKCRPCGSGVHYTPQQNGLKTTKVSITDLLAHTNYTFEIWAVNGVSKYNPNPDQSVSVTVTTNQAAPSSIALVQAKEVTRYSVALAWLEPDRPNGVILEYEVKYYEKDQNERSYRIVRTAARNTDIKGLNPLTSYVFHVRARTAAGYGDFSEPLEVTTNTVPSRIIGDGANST
Assay: secondary screen of combination variant Fabs: activity ELISA on coated human EphA4-His, normalised by Fab quantitation ELISA

Row | binding result | Binder
1 | binds | B1
2 | binds | B2
3 | binds | B3
4 | binds | B4
5 | binds | B5
6 | binds | B6
7 | binds | B7

Target: T1, 人EphA4-His融合蛋白 (human EphA4 …)
Assay: secondary screen: activity ELISA on coated human EphA4-His, normalised by Fab quantitation ELISA, against parent Fab20

Row | binding result | Binder
8 | binds | B8
